Experimental data as given in the supplement of paper PMC5998384.

Key:
HeLa Kyoto [1] = assay: melting temperature (median over replicates), in situ; higher = more thermally stable
HeLa Kyoto [2] = assay: thermal stability score vs G1/S (z-score of summed log2 fold changes over temperatures); higher = more thermally stable than in G1/S
HeLa Kyoto [3] = assay: solubility in G1/S (NP-40 vs SDS abundance) (log2 ratio); higher = more soluble; conditions: cell cycle stage: G1/S
HeLa Kyoto [4] = assay: solubility change mitosis vs G1/S (difference of NP-40 vs SDS log2 ratios) (log2 ratio difference); higher = more soluble in mitosis
[5] = cell cycle stage: early G1 (4.5 h after nocodazole release)
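For melting temperature (median over replicates), in situ in this document: HeLa Kyoto cells synchronized by double thymidine or nocodazole block, proteins quantified by TMT10plex mass spectrometry, three independent biological replicates.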
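For solubility change mitosis vs G1/S (difference of NP-40 vs SDS log2 ratios) in this document: synchronized HeLa Kyoto cells (double thymidine block for G1/S, nocodazole release for mitosis), protein amounts in NP-40 versus SDS lysates quantified by mass spectrometry, three biological replicates.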
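For solubility in G1/S (NP-40 vs SDS abundance) in this document: HeLa Kyoto cells arrested at G1/S by double thymidine block, proteins quantified by TMT10plex mass spectrometry in mild NP-40 versus SDS extracts, three biological replicates.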
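For thermal stability score vs G1/S (z-score of summed log2 fold changes over temperatures) in this document: synchronized HeLa Kyoto cells, proteins quantified by TMT10plex mass spectrometry, three biological replicates, mitosis taken 0.5 h after nocodazole release, G1/S directly after double thymidine block.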

GFM1, sequence (chain, as listed by the source): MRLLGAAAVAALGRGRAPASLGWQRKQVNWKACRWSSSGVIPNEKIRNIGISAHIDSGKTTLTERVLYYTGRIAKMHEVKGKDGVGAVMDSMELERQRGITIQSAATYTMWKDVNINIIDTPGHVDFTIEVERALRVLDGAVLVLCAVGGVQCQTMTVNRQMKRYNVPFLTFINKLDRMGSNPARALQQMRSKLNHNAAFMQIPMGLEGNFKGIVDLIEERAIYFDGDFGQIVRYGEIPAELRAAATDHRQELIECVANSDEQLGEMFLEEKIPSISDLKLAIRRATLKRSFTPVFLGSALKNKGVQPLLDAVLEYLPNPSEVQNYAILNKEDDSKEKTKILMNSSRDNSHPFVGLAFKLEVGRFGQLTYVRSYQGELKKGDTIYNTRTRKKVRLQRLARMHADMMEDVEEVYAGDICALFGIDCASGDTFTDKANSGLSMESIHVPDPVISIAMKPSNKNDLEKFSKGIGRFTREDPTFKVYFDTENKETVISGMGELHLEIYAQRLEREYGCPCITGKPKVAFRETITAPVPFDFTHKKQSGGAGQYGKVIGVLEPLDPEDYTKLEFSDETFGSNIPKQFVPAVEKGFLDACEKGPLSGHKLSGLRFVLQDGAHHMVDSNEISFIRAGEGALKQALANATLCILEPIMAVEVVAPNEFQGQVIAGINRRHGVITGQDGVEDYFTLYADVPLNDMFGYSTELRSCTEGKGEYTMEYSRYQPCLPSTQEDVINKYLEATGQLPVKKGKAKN

Substance	melting temperature (HeLa Kyoto [1]; cell cycle stage: G1/S) [°C]	melting temperature (HeLa Kyoto [1]; cell cycle stage: mitosis) [°C]	thermal stability score (HeLa Kyoto [2]; [5])	thermal stability score (HeLa Kyoto [2]; cell cycle stage: mitosis)	solubility in G1/S (log2) (HeLa Kyoto [3])	solubility change mitosis (log2) (HeLa Kyoto [4])
MEMEQEKMTMNKELSPDAAAYCCSACHGDETWSYNHPIRGRAKSRSLSASPALGSTKEFRRTRSLHGPCPVTTFGPKACVLQNPQTIMHIQDPASQRLTWNKSPKSVLVIKKMRDASLLQPFKELCTHLMEENMIVYVEKKVLEDPAIASDESFGAVKKKFCTFREDYDDISNQIDFIICLGGDGTLLYASSLFQGSVPPVMAFHLGSLGFLTPFSFENFQSQVTQVIEGNAAVVLRSRLKVRVVKELRGKKTAVHNGLGENGSQAAGLDMDVGKQAMQYQVLNEVVIDRGPSSYLSNVDVYLDGHLITTVQGDGVIVSTPTGSTAYAAAAGASMIHPNVPAIMITPICPHSLSFRPIVVPAGVELKIMLSPEARNTAWVSFDGRKRQEIRHGDSISITTSCYPLPSICVRDPVSDWFESLAQCLHWNVRKKQAHFEEEEEEEEEG [NADK]	61.1	59.2	-6.99	-2.68	0.208	0.129
MTSEVIEDEKQFYSKAKTYWKQIPPTVDGMLGGYGHISSIDINSSRKFLQRFLREGPNKTGTSCALDCGAGIGRITKRLLLPLFREVDMVDITEDFLVQAKTYLGEEGKRVRNYFCCGLQDFTPEPDSYDVIWIQWVIGHLTDQHLAEFLRRCKGSLRPNGIIVIKDNMAQEGVILDDVDSSVCRDLDVVRRIICSAGLSLLAEERQENLPDEIYHVYSFALR [NTMT1]	49.9	51.2	1.31	1.61	0.238	-0.15
MVGSLNCIVAVSQNMGIGKNGDLPWPPLRNEFRYFQRMTTTSSVEGKQNLVIMGKKTWFSIPEKNRPLKGRINLVLSRELKEPPQGAHFLSRSLDDALKLTEQPELANKVDMVWIVGGSSVYKEAMNHPGHLKLFVTRIMQDFESDTFFPEIDLEKYKLLPEYPGVLSDVQEEKGIKYKFEVYEKND [DHFR]	47.9	49.1	1.37	2.73	0.294	-0.139
USP9X	50.4	50.6	-0.0892	0.618	-0.226	-0.134
MGKRGSRSQSQLLNTLTKKQKKHLRDFGEEHPFYDRVSRKEAKPQICQLSESSDSSDSESDSESEPQQVSGYHRLLATLKNVSEEEEEDEEEEEEEDSIVDDAEMNDEDGGSDVSVEEEMAAESTESPENVALSADPEGKEDGEEPPGTSQTSPEEFTDAKHESLFSLETNFLEEESGDNSSLKASQDPFLQHVNKELKEKAIQAVATNPKTTHELKWPILGQLFFSSKFQKLETFKPPKDIDLKSLHLQKPLESTWTKTNSQFLSGPQKSSSPFTPLQKELFLIMNSYRDLFYPERTALKNGEEIRHVYCLHVINHILKANAQVLGNNSRRRSQKFGVGDDDDFRDQGLTRPKVLIVVPFREAALRVVQLFISLLEGDSKKKIIVSNKKRFQGEYGSDPEERPPNLKRPEDYEAVFVGNIDDHFRIGVAILQRSIRLYAPFYSSDILIASPLGLRTIIGGEGEKKRDFDFLSSIELLIIDQADIYLMQNWEHVLHLMNHMNLLPLDSHGVDFSRVRMWSLNNWSKYYRQTLLFGALQDAQINSVFNKYCVNMQGQVAVRNVPMTGSISHVLVQLPHVFQRMEAENLASVIDARFNFFVNKILPQYRDAVMSHTLIYIPSYFDFVRLRNYFKKEELNFTHICEYTQKSGVSRARHFFLQGEKQFLLFTERFHFYKRYTIKGIRNLIFYELPTYPHFYSEICNMLRATNRGEEATWTCTVLYSKYDAQRLAAVVGVERAAQMLQSNKNVHLFITGEK [DIEXF]	47.2	49.3	0.651	2.11	-0.69	0.17
TTN	50.4	51.5	2.14	1.45	-0.476	0.167
GFM1	50.3	50.5	-0.899	0.337	0.0415	-0.108
MSAKAISEQTGKELLYKFICTTSAIQNRFKYARVTPDTDWARLLQDHPWLLSQNLVVKPDQLIKRRGKLGLVGVNLTLDGVKSWLKPRLGQEATVGKATGFLKNFLIEPFVPHSQAEEFYVCIYATREGDYVLFHHEGGVDVGDVDAKAQKLLVGVDEKLNPEDIKKHLLVHAPEDKKEILASFISGLFNFYEDLYFTYLEINPLVVTKDGVYVLDLAAKVDATADYICKVKWGDIEFPPPFGREAYPEEAYIADLDAKSGASLKLTLLNPKGRIWTMVAGGGASVVYSDTICDLGGVNELANYGEYSGAPSEQQTYDYAKTILSLMTREKHPDGKILIIGGSIANFTNVAATFKGIVRAIRDYQGPLKEHEVTIFVRRGGPNYQEGLRVMGEVGKTTGIPIHVFGTETHMTAIVGMALGHRPIPNQPPTAAHTANFLLNASGSTSTPAPSRTASFSESRADEVAPAKKAKPAMPQDSVPSPRSLQGKSTTLFSRHTKAIVWGMQTRAVQGMLDFDYVCSRDEPSVAAMVYPFTGDHKQKFYWGHKEILIPVFKNMADAMRKHPEVDVLINFASLRSAYDSTMETMNYAQIRTIAIIAEGIPEALTRKLIKKADQKGVTIIGPATVGGIKPGCFKIGNTGGMLDNILASKLYRPGSVAYVSRSGGMSNELNNIISRTTDGVYEGVAIGGDRYPGSTFMDHVLRYQDTPGVKMIVVLGEIGGTEEYKICRGIKEGRLTKPIVCWCIGTCATMFSSEVQFGHAGACANQASETAVAKNQALKEAGVFVPRSFDELGEIIQSVYEDLVANGVIVPAQEVPPPTVPMDYSWARELGLIRKPASFMTSICDERGQELIYAGMPITEVFKEEMGIGGVLGLLWFQKRLPKYSCQFIEMCLMVTADHGPAVSGAHNTIICARAGKDLVSSLTSGLLTIGDRFGGALDAAAKMFSKAFDSGIIPMEFVNKMKKEGKLIMGIGHRVKSINNPDMRVQILKDYVRQHFPATPLLDYALEVEKITTSKKPNLILNVDGLIGVAFVDMLRNCGSFTREEADEYIDIGALNGIFVLGRSMGFIGHYLDQKRLKQGLYRHPWDDISYVLPEHMSM [ACLY]	52.2	52.6	2.8	4.04	-0.0323	-0.156
FLAD1	51.8	51.6	-0.00796	-0.288	0.272	-0.111
MNRTKGDEEEYWNSSKFKAFTFDDEDDELSQLKESKRAVNSLRDFVDDDDDDDLERVSWSGEPVGSISWSIRETAGNSGSTHEGREQLKSRNSFSSYAQLPKPTSTYSLSSFFRGRTRPGSFQSLSDALSDTPAKSYAPELGRPKGEYRDYSNDWSPSDTVRRLRKGKVCSLERFRSLQDKLQLLEEAVSMHDGNVITAVLIFLKRTLSKEILFRELEVRQVALRHLIHFLKEIGDQKLLLDLFRFLDRTEELALSHYREHLNIQDPDKRKEFLKTCVGLPFSAEDSAHIQDHYTLLERQIIIEANDRHLESAGQTEIFRKHPRKASILNMPLVTTLFYSCFYHYTEAEGTFSSPVNLKKTFKIPDKQYVLTALAARAKLRAWNDVDALFTTKNWLGYTKKRAPIGFHRVVEILHKNNAPVQILQEYVNLVEDVDTKLNLATKFKCHDVVIDTYRDLKDRQQLLAYRSKVDKGSAEEEKIDALLSSSQIRWKN [VIPAS39]	49.5	49.2	0.126	0.142	0.111	-0.125
MAAVLKPVLLGLRDAPVHGSPTGPGAWTASKLGGIPDALPTVAAPRPVCQRCGQPLALVVQVYCPLEGSPFHRLLHVFACACPGCSTGGARSWKVFRSQCLQVPEREAQDAQKQGNSLAAEDWCEGADDWGSDTEEGPSPQFTLDFGNDASSAKDVDWTARLQDLRLQDAVLGAAHPVPPGLPLFLPYYICVADEDDYRDFVNLDHAHSLLRDYQQREGIAMDQLLSQSLPNDGDEKYEKTIIKSGDQTFYKFMKRIAACQEQILRYSWSGEPLFLTCPTSEVTELPACSQCGGQRIFEFQLMPALVSMLKSANLGLSVEFGTILVYTCEKSCWPPNHQTPMEEFCIIQEDPDELLFK [PDCD2L]	48.9	49.8	0.0844	0.849	0.287	0.0741
MAATAAAVVAEEDTELRDLLVQTLENSGVLNRIKAELRAAVFLALEEQEKVENKTPLVNESLKKFLNTKDGRLVASLVAEFLQFFNLDFTLAVFQPETSTLQGLEGRENLARDLGIIEAEGTVGGPLLLEVIRRCQQKEKGPTTGEGALDLSDVHSPPKSPEGKTSAQTTPSKIPRYKGQGKKKTSGQKAGDKKANDEANQSDTSVSLSEPKSKSSLHLLSHETKIGSFLSNRTLDGKDKAGLCPDEDDMEGDSFFDDPIPKPEKTYGLRKEPRKQAGSLASLSDAPPLKSGLSSLAGAPSLKDSESKRGNTVLKDLKLISDKIGSLGLGTGEDDDYVDDFNSTSHRSEKSEISIGEEIEEDLSVEIDDINTSDKLDDLTQDLTVSQLSDVADYLEDVA [FGFR1OP]	52	52.4	-0.228	-0.703	0.156	-0.0261
